Experimental data as given in the DeepSol protein solubility set.

Experiment: soluble on expression in E. coli; label from the status in PepcDB or PDB records

Sequence	soluble on expression in E. coli
MGSDKIHHHHHHMNKEVDLSVSCLGKVKELKYDVIILPWGATEPHNLHLPYLTDCILPHDIAVEAAELALSRSGVRCMVMPPVPFGAHNPGQRELPFCIHTRYATQQAILEDIVSSLHVQGFRKLLILSGHGGNNFKGMIRDLAFEYPDFLIAAANWFEVVSPKGYFEAEIDDHAGESETSVMMHYHPELVNLAEAGDGESKPFAIASLNEKVAWVPRHWDKATVDSGVGNPKKATAEKGERYVKPIVEKLAGLFEEMAQHDLYE	not soluble
MGSDKIHHHHHHMAFKNLKELSFEKSNYIKPKRFAYESNGRLCTWDFIESKDSVSVLLYHKELESFIFVRQFRIPLWYHQMHDKDYVKDDDMGYTIELCSGLVDKKLSLEEIAKEECIEELGYAPKNLEKIGDFYTGFGSGVSKQSFYFVEVDEKDKISSGGGVDDEEIEAVYVKVQDFEKKCKNMIRTPLLDFAYMWFLKEKWGKLKII	not soluble
PEYSLFVGDLTPDVDDGMLYEFFVKVYPSCRGGKVVLDQTGVSKGYGFVKFTDELEQKRALTECQGAVGLGSKPVRLSVAIPKASRVKPVE	soluble
MGSDKIHHHHHHMRPLIFAYANAAASIAADSWNLVMGEDNPFCRHEYLLSLEQSLSACDATGWQACHLCVFDASGMGLTQEQNTDGIVSTRDAVHFIDLPLLAVMPLYQKSHSYGEYVFDWAWAQAYEHHGLAYYPKLLNAIPFTPVLGRRIGLSPRLSADEAQQLSALVFTCLNRQLMDAHASISSWHCLFVSPSQQSLFEPPLSVKQQTLQHLPHNPSLRRLSTQFHWYNRGYTSFEAFLAALNSRKRKNIVKERAQLQTHGLRFEFVAGNVITSQQWQRFIECYQLTYLKRSGHRGYLTPVFFQMIAERLAEQIVLLVVSDATGEMIAGALYFTGRNELGQRCLFGRYWGSTLELEGLHFEACYYQGIEYCIAQDIEVFDAGAQGEHKVLRGFEPVAIYSYHNIAHPEFKLAIAHFTEEEAVQMEVYMQQMREVLPYKKAP	not soluble
MSLTAPRLRILSVEVRERMMPFVRPFRFGPSVVEAAPQAFVRIELEVEGAGRAVGQAAEMMMPRWFDKAPHKSPEQTVDDLRRVLLHAAALYADAPWSTAYGLSADAAAMQLGWAEGRGIPALAAHFGPALLDKAVVDALLRALSLTFPEGLSRNVMGLDARNARDLSPEQIPALLASLTPVPAVAVRHTIGLLDPLEGPHGLSAEIAAARLRFFKIKIGGDLAADLDRLAAITALLTHLAPDFRATLDANEQYDPERLCQLAAGLDTPALRPLKARLLYIEQPFDRTETFTRPLPPALDGIPVIIDEADGGLDAFPRAIALGYRGVSSKACKGLYKSILNAVRVQAGEGTFLTAEDLTCQPGLGLQQDLALVATLGLTHGERNGHHYVAGFGPAPEEEAGAFAAAHPDLYRLTDAGAALDVSRGVLATASLLSAPGFAGRAEPDWASLAPVTEGHHHHHH	not soluble
SLYATPIGYADTRFETAADAPRQGVETPYAANVQVYESFRGGLVGLEPDDRVVVVWWADDADRDVLAVRDGDRGVFTTRSPARPNPVCITPCELLAVDAADGTLAIRGWIWRTARRSWI	soluble
MRYSDGRYEADIDITVEEWKSMLQNPKIFGPKYLDMILKWYYEIDHRATSQAIMAKYPSELKGTPYNGYVIGLTNRIIKYLNRFEVIGTQGNESKFIVPFEGWYEDYKEGNHFVWKVRDELVQAIEELGLVDEKKFPSEEEELKSYSIENRKDGKIIMRYTTQYERNPINRRNAIRIHGTVCQGCGFDFEKVYGEIGKDYIEVHHIKPLYEGGGSVPINAETDLICVCANCHRMIHRRKDKVLSLKELQKLLLANKNLEHHHHHH	soluble
MIVKTEEELQALKEIGYICAKVRNTMQAATKPGITTKELDNIAKELFEEYGAISAPIHDENFPGQTCISVNEEVAHGIPSKRVIREGDLVNIDVSALKNGYYADTGISFVVGESDDPMKQKVCDVATMAFENAIAKVKPGTKLSNIGKAVHNTARQNDLKVIKNLTGHGVGLSLHEAPAHVLNYFDPKDKTLLTEGMVLAIEPFISSNASFVTEGKNEWAFETSDKSFVAQIEHTVIVTKDGPILTTKIEEE	soluble
MGSDKIHHHHHHENLYFQGMWEIYDAMINGIPEDFLVDELVCGTTHSVIRSGNGVGLGPNRPFETRMPMLTQNLLGLPLRVAAGCVKSWNYVEASIGLAAINAYYNNPQVAREHGVIFSDAKRVEDRMNDPFIMSQNEVKGKKVGVVGHFPHLESLLEPICDLSILEWSPEEGDYPLPASEFILPECDYVYITCASVVDKTLPRLLELSRNARRITLVGPGTPLAPVLFEHGLQELSGFMVKDNARAFRIVAGAEKVKIYSAGQKVTIKK	soluble
MLNKVFIIGRLTGDPVITYLPSGTPVVEFTLAYNRRYKNQNGEFQEESHFFDVKAYGKMAEDWATRFSKGYLVLVEGRLSQEKWEKEGKKFSKVRIIAENVRLINRPKGAELQAEEEEEVPPIEEEIEKLGKEEEKPFTDEEDEIPF	soluble
MTAPRKTRTEVITTVLNLERTLAQTVLGINDENLRVLDNQIDCDIHVRGTHVELTGPAHEVSRASKIFEELQAIARRGHVISPETVKNVISMINVETPQTVSEILTGDILARRGKVIRPKTLGQKHYVDAIDTNTIVFGLGPAGSGKTYLAMAKAVQALQSKQVSRIILTRPAVEAGEKLGFLPGTLNEKIDPYLRPLHDALRDMVEPEVIPKLMEAGIVEVAPLAYMRGRTLNDAFVILDEAQNTTPAQMKMFLTRLGFGSKMVVTGDITQVDLPGGQKSGLRLVRHILRGVDDVHFSELTSSDVVRHQLVGHIVDAYEDYEEREARELKRKRQETRP	not soluble
MGSDKIHHHHHHMSFTSLPLTEINHKLPARNIIESQWITLQLTLFAQEQQAKRVSHAIVSSAYRKAEKIIRDAYRYQREQKVEQQQELACLRKNTLEKMEVEWLEQHVKHLQDDENQFRSLVDHAAHHIKNSIEQVLLAWFDQQSVDSVMCHRLARQATAMAEEGALYLRIHPEKEALMRETFGKRFTLIIEPGFSPDQAELSSTRYAVEFSLSRHFNALLKWLRNGEDKRGSDEY	not soluble
MGSDKIHHHHHHMEKKPLYHFMPGTMTWSFGTPGCNFKCANRQNWAISQMGQDKSIPLATPEAIVRNAMNTGCSSISCTYTEPTIFAEYALDVMQLARQTGLRNIWISNGYLSPLCLKTVTPWLDAINVGLQSMDDAFYRRVCGARLDPVLDSLRLIQESGMHLEITTLVIPGHSSDPAMLERLAGFIAHDLGTGVPWHIIPFYPEISWKMQDTPPTPAESIEQAFEIGRKAGLSFIYAGNAHSDTFCDQCSARLVGRKASPFGDYRIERFDTGGRCPVCHAPSPMRD	not soluble
MTREIIPILPEAPVETARSGNALPLLREIAEHLHHLLETGEASTIDLSALPLTPGDLEWLRAELGGGEVSVTLHADGASTLDETAFPGVWWIIHRNAQGAVTTQFIEVAFVPELVKSPRADVAAARAALVLRMADL	soluble
MTIQTVIKENAYFDSVTLMTISTRANELAGVKTAMIGMGTDMNLEVIRNVGLYTPALDHVTTGDLLIVLDLDDQANSEEILQQVDELFTKKKKTASSEVTYKTLDSALHEEPDANLVVISVNGKFAAREAHKALDQQKHVMLFSDNVTVDEELALKQKAHEKELFVMGPDCGTAIINGVGLCFANEVRSGDIGIVGASGTGSQEVSVQIHKYGYGISQLIGTGGRDLSAEIGGLMMLDGLDTLMVDEQTKAILLISKPPAPEVTEKILKKLAVSTKPVVIYFIGSEQTERKIDNVTFATSSLDAVQKVIQFSQTQEAETSLYQNPTGATLTAIQQQQAPSQKFVRGLFCGGTLCDELLYALTEVSDDVYSNIHKISERQLANPDHSQAHTLIDFGDDRFTEGRPHPMIDPTSRITRILQEAKDPEVAVLALDFELGYGSHENPVGVLAEALKEAKAIAKADGRELAIIGYVLGTEEDPQDIHEQRKILEDLEVLVVDSSHQLCEATKTFVKGANEHEQK	not soluble
PMFEAAYDFPGSGSPSELPLKKGDVIYITREEPSGWSLGKLLDGSKEGWVPTAYMKPH	soluble
MSENMVNLPDSLYEDYSKLKLTSPSNASSSSSAPPPRLSVVAHPTVEMIIQWVCDIHKPKSYMSDFALHNLAYHRNDFEFLPSLLWESKNTVYIMLQEVFEAYRHLAGHISLRLFPHPLNPLRVYNVFLLFQSMACHPDTSRQFLRAKMPNYFYPLMDTGLIDKSDECMRLAALGVIAHMLKASEDGAVNRYLMESGVVGFCVKPIEFGSTETKKVALYILDKIMSTDQGLYYCCVLADRFYVIDELLKKVLFYLSNMVRPPSSLFSLVTGCYVKLSQNSRARNGIRRYTPFLLFDGTFSRLYAEDPVAANNRIQLLQNLDN	soluble
